The chains are these.
B1: target 2 MT 5'PFS CGG 3'PFS ACC (mixed)
RNA 1: CACCCGUGCAAAAUUGCAGGGGUCUAAAACCUUCUCCAAAUUGUUUCAUCCU
RNA 2: GGGAAUGGAUCCACAUCUACGAAUUCCGGAGGAUGAAACAAUUUGGAGAAGACCAGAUCGGAAGAGCACACGU
B2: target 2 MT 5'PFS CAU 3'PFS UCU (mixed)
RNA 1: B1 RNA 1
RNA 2: B1 RNA 2 with G28A, G29U, A52U, C54U
B3: target 2 MT 5'PFS GUC 3'PFS AUG (mixed)
RNA 1: B1 RNA 1
RNA 2: B1 RNA 2 with C27G, G28U, G29C, C53U, C54G
B4: target 2 MT 5'PFS GGU 3'PFS UUU (mixed)
RNA 1: B1 RNA 1
RNA 2: B1 RNA 2 with C27G, G29U, A52U, C53U, C54U
B5: target 2 MT 5'PFS CUG 3'PFS UUU (mixed)
RNA 1: B1 RNA 1
RNA 2: B1 RNA 2 with G28U, A52U, C53U, C54U
B6: target 2 MT 5'PFS CUG 3'PFS UUC (mixed)
RNA 1: B1 RNA 1
RNA 2: B1 RNA 2 with G28U, A52U, C53U
B7: target 2 MT 5'PFS CUA 3'PFS CUU (mixed)
RNA 1: B1 RNA 1
RNA 2: B1 RNA 2 with G28U, G29A, A52C, C53U, C54U
B8: target 2 MT 5'PFS GGU 3'PFS UUC (mixed)
RNA 1: B1 RNA 1
RNA 2: B1 RNA 2 with C27G, G29U, A52U, C53U
B9: target 2 MT 5'PFS GGC 3'PFS CCG (mixed)
RNA 1: B1 RNA 1
RNA 2: B1 RNA 2 with C27G, G29C, A52C, C54G
B10: target 2 MT 5'PFS UGG 3'PFS CGA (mixed)
RNA 1: B1 RNA 1
RNA 2: B1 RNA 2 with C27U, A52C, C53G, C54A
B11: target 2 MT 5'PFS CAC 3'PFS UGU (mixed)
RNA 1: B1 RNA 1
RNA 2: B1 RNA 2 with G28A, G29C, A52U, C53G, C54U
B12: target 2 MT 5'PFS GUC 3'PFS AUC (mixed)
RNA 1: B1 RNA 1
RNA 2: B1 RNA 2 with C27G, G28U, G29C, C53U
B13: target 2 MT 5'PFS GUA 3'PFS ACU (mixed)
RNA 1: B1 RNA 1
RNA 2: B1 RNA 2 with C27G, G28U, G29A, C54U
B14: target 2 MT 5'PFS GCU 3'PFS CAU (mixed)
RNA 1: B1 RNA 1
RNA 2: B1 RNA 2 with C27G, G28C, G29U, A52C, C53A, C54U
B15: target 2 MT 5'PFS ACC 3'PFS AGA (mixed)
RNA 1: B1 RNA 1
RNA 2: B1 RNA 2 with C27A, G28C, G29C, C53G, C54A
B16: target 2 MT 5'PFS CGG 3'PFS UUC (mixed)
RNA 1: B1 RNA 1
RNA 2: B1 RNA 2 with A52U, C53U
B17: target 2 MT 5'PFS UGG 3'PFS CGC (mixed)
RNA 1: B1 RNA 1
RNA 2: B1 RNA 2 with C27U, A52C, C53G
B18: target 2 MT 5'PFS AGG 3'PFS CCG (mixed)
RNA 1: B1 RNA 1
RNA 2: B1 RNA 2 with C27A, A52C, C54G
B19: target 2 MT 5'PFS CGG 3'PFS UUA (mixed)
RNA 1: B1 RNA 1
RNA 2: B1 RNA 2 with A52U, C53U, C54A
B20: target 2 MT 5'PFS AGG 3'PFS CCU (mixed)
RNA 1: B1 RNA 1
RNA 2: B1 RNA 2 with C27A, A52C, C54U
B21: target 2 MT 5'PFS CUG 3'PFS UUG (mixed)
RNA 1: B1 RNA 1
RNA 2: B1 RNA 2 with G28U, A52U, C53U, C54G
B22: target 2 MT 5'PFS UCU 3'PFS ACA (mixed)
RNA 1: B1 RNA 1
RNA 2: B1 RNA 2 with C27U, G28C, G29U, C54A
B23: target 2 MT 5'PFS CGG 3'PFS ACA (mixed)
RNA 1: B1 RNA 1
RNA 2: B1 RNA 2 with C54A
B24: target 2 MT 5'PFS CUG 3'PFS UUA (mixed)
RNA 1: B1 RNA 1
RNA 2: B1 RNA 2 with G28U, A52U, C53U, C54A
B25: target 2 MT 5'PFS UUU 3'PFS AGG (mixed)
RNA 1: B1 RNA 1
RNA 2: B1 RNA 2 with C27U, G28U, G29U, C53G, C54G
B26: target 2 MT 5'PFS CGG 3'PFS UUG (mixed)
RNA 1: B1 RNA 1
RNA 2: B1 RNA 2 with A52U, C53U, C54G
B27: target 2 MT 5'PFS GUC 3'PFS AUA (mixed)
RNA 1: B1 RNA 1
RNA 2: B1 RNA 2 with C27G, G28U, G29C, C53U, C54A
B28: target 2 MT 5'PFS UGU 3'PFS UAC (mixed)
RNA 1: B1 RNA 1
RNA 2: B1 RNA 2 with C27U, G29U, A52U, C53A
B29: target 2 MT 5'PFS GGC 3'PFS CCA (mixed)
RNA 1: B1 RNA 1
RNA 2: B1 RNA 2 with C27G, G29C, A52C, C54A
B30: target 1 U11A,A16G (mixed)
RNA 1: CACCCGUGCAAAAAUGCAGGGGUCUAAAACUGAGCGGAUAACCUCUCUAUGG
RNA 2: GGGAAUGGAUCCACAUCUACGAAUUCGUACCAUAGGGAGGAUAUCCGCUCACCGAGAUCGGAAGAGCACACGU
B31: target 1 insA 3' of 21,insC 3' of 20 (mixed)
RNA 1: B30 RNA 1
RNA 2: GGGAAUGGAUCCACAUCUACGAAUUCGUACCAACUAGAGAGGUUAUCCGCUCACCGAGAUCGGAAGAGCACACGU

Substitutions are numbered along the chain they refer to. Names and notes keep the numbering of the source.

The target in this series is T1, EsCas13d, nuclease-dead (Eubacterium siraeum, UniProt B0MS50, R295A;H300A;R849A;H854A).
T1 sequence: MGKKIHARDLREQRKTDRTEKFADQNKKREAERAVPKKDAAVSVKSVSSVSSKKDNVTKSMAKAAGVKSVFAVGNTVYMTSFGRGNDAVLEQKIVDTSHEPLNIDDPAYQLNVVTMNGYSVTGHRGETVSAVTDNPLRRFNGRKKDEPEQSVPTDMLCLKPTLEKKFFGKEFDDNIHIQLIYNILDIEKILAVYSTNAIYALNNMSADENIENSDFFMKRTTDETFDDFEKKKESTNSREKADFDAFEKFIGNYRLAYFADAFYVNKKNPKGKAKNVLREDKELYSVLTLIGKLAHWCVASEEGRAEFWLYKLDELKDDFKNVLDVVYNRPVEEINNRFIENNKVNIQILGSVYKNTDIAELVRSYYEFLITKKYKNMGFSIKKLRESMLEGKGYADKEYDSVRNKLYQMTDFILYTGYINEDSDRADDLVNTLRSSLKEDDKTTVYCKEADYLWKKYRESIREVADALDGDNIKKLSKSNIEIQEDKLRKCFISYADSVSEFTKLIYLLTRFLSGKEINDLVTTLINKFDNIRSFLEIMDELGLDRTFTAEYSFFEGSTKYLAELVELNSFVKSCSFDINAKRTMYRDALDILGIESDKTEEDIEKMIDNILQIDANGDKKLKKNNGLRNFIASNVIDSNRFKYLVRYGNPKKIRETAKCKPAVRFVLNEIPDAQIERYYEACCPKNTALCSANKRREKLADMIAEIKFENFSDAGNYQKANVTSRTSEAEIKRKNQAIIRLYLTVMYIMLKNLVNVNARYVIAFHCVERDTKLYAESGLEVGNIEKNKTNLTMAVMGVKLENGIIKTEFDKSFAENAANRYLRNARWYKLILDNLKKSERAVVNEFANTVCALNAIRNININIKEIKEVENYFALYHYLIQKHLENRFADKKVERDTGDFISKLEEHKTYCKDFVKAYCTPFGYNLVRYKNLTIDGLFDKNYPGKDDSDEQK
The experiment in a line: crRNA (strand 1, pre-loaded); Mg2+; 40 mM Tris-HCl pH 7.5, 150 mM NaCl, 6 mM MgCl2, 1 mM DTT, 0.1% Tween-20, 0.2 mg/ml BSA; 25 C; 10 min per concentration, then washed. Conditions: tags: His6-TwinStrep-SUMO cleaved; N-terminal SNAP kept (SNAP-Surface 488); label: 3' end held by stalled T7 RNA polymerase.
By Kd is commonly meant the equilibrium constant for the complex coming apart. Lower therefore signals a tighter complex. As to B1, binding was put at a Kd of 12 ± 1.9 nM.

B2 showed a dissociation constant Kd of 4.7 ± 0.7 nM.

The molecule B3 yielded an equilibrium dissociation constant (Kd) of 15.6 ± 1.9 nM. This Kd lies about 3.3-fold higher than the previous one.

Molecule B4 yielded a Kd of 68 ± 20 nM. This Kd lies about 4.4-fold higher than the previous one.

The molecule B5 had a Kd of 5.5 ± 0.5 nM.

For the molecule B6, the dissociation constant Kd worked out at 7.3 ± 1.4 nM.

B7 displayed a dissociation constant Kd of 4 ± 0.8 nM.

B8 showed a dissociation constant (Kd) of 73 ± 28 nM.

Regarding B9, the Kd was 17.1 ± 3 nM. This Kd is about 4.3-fold lower than that of the molecule before.

Consider B10, for which binding was put at a Kd of 5.4 ± 0.8 nM.

As for B11, the dissociation constant Kd amounted to 2.27 ± 0.29 nM.

For B12, the Kd was 13.5 ± 1.2 nM. This Kd lies about 5.9-fold higher than the previous one.

In turn, B13 displayed a Kd of 15.9 ± 2.7 nM.

Consider B14, for which the Kd is 9.8 ± 2.5 nM.

On to B15, for which binding was put at a Kd of 7.9 ± 3.1 nM.

With B16, the dissociation constant (Kd) was 10.8 ± 1.7 nM.

Turning to B17, the Kd was found to be 5.8 ± 0.4 nM.

Consider B18, for which the dissociation constant Kd worked out at 8.2 ± 0.9 nM.

For the molecule B19, the Kd is 7 ± 1 nM.

In turn, B20 displayed an equilibrium dissociation constant (Kd) of 40 ± 15 nM. Compared with the last molecule, the Kd is about 5.7-fold higher.

For B21, the Kd came to 5.8 ± 0.9 nM.

B22 came in with a Kd of 9.2 ± 1.9 nM.

The molecule B23 displayed a Kd of 5 ± 0.5 nM.

B24 returned a Kd of 4.7 ± 0.4 nM.

For B25, the Kd was found to be 4.9 ± 0.6 nM.

As for B26, the dissociation constant Kd is 6.5 ± 0.7 nM.

For the molecule B27, the affinity, expressed as Kd, was 12.6 ± 1.6 nM.

For the molecule B28, the Kd was found to be 25 ± 4 nM.

On to B29, for which binding was put at a Kd of 16.9 ± 2.7 nM. This Kd and that of the molecule before are within 1.5-fold of each other.

As to B30, binding was characterised by a dissociation constant (Kd) of 77 ± 15 nM.

As to B31, the affinity, expressed as Kd, was 10 ± 0.5 nM.

Source of the values: article PMC10786891, “Massively parallel profiling of RNA-targeting CRISPR-Cas13d”.
